Measurements from patent publication US6458760B1, “Method for treating tissue damaged from ischemia” (Henry Ford Health System, priority 1998, dated 2002).

System: rats with middle cerebral artery occlusion
Experiment: Stefin A in rat stroke model, infarcted brain tissue volume
Format: in vivo
Conditions: compared to animals without inhibitor
Text: The inventors have used a stroke model in rats, explained in more detail hereinbelow, to verify this. In this model, a nylon monofilament is advanced through the vasculature of anesthetized rats until it blocks the middle cerebral artery. The monofilament is left in place for two hours. Withdrawal of the monofilament initiates reperfusion of the ischemic tissue. The extent of damage is visualized seven days after the ischemic event by removing the brain of the animal and examining it in section.
The initial cathepsin inhibitor used by the inventors was a large naturally occurring molecule, stefin A (MW 15,000). In the stroke model, this molecule was administered intraventricularly in some studies prior to the occlusion and intravenously upon reperfusion in others.

B1: stefin A: large naturally occurring molecule (MW 15,000), cathepsin inhibitor, recombinant preparation, used as control (protein, UniProt P01040 1-98, looked up)
Cystatin-A: MIPGGLSEAKPATPEIQEIVDKVKPQLEEKTNETYGKLEAVQYKTQVVAGTNYYIKVRAGDNKYMHLKVFKSLPGQNEDLVLTGYQVDKNKDDELTGF
reduction in the volume of the infarcted brain tissue (administered intravenously upon reperfusion): ~40% | reduction in the volume of the infarcted brain tissue (administered intraventricularly prior to the occlusion): ~40%
